The supplement of paper PMC10065799, “High-throughput profiling of sequence recognition by tyrosine kinases and SH2 domains using bacterial peptide display” (eLife, 2023)

Key:
[1] = system: AncSZ; assay: phosphorylation enrichment, bacterial display (enrichment ratio); higher = better substrate or ligand; peptides without Tyr show the background
[2] = biological target: EPHB1 (UniProt P54762); assay: as above
[3] = biological target: EPHB2 (UniProt P29323); assay: as above
[4] = biological target: FGFR1 (UniProt P11362); assay: as above
Chain of FGFR1 (P11362 whole entry, looked up): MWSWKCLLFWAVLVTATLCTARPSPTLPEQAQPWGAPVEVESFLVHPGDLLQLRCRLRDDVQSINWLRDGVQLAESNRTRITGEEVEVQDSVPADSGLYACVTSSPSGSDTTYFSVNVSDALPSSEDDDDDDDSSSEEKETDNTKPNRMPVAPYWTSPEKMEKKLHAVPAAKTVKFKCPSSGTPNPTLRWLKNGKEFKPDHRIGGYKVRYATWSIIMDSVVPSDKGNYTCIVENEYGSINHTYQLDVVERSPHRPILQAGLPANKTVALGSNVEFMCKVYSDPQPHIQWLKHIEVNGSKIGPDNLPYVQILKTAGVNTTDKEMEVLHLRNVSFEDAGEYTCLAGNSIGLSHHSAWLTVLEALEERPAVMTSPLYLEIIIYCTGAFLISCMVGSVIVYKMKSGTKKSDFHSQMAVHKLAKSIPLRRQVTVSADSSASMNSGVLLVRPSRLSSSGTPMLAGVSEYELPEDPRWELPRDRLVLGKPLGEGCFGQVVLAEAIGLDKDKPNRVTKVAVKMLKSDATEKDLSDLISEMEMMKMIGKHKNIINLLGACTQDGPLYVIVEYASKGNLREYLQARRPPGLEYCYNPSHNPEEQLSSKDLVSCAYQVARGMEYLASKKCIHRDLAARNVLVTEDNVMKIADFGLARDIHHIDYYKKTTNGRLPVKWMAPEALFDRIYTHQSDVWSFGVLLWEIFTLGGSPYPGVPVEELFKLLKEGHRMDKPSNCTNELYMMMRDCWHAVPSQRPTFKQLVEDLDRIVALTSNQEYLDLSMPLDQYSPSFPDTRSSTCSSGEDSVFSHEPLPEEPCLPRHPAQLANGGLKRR

[5] = biological target: FGFR3 (UniProt P22607); assay: as above
Chain of FGFR3 (P22607 whole entry, looked up): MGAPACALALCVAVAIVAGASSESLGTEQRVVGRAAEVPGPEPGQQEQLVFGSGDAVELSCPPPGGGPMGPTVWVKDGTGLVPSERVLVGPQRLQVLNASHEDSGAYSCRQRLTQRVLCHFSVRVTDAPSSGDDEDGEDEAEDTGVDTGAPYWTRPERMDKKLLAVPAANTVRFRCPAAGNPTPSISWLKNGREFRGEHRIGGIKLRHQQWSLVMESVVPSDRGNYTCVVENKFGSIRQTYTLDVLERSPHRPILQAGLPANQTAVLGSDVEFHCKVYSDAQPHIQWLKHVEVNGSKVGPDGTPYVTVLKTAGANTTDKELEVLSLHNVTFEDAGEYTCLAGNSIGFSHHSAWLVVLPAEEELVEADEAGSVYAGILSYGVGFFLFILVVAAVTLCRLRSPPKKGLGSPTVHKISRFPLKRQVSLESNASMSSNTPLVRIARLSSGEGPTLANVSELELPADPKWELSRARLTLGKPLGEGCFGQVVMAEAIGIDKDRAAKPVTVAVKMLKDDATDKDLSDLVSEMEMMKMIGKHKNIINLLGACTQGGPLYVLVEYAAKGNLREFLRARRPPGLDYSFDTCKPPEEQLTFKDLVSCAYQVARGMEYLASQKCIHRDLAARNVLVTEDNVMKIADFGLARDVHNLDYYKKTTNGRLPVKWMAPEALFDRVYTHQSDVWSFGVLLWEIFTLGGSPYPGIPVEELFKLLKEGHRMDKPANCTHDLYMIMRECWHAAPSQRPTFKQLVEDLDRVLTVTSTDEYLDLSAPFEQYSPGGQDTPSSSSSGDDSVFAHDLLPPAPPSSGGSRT

[6] = system: Fer (mouse); assay: as above
[7] = biological target: Fes (UniProt P07332); assay: as above
[8] = biological target: Fyn (UniProt P06241); assay: as above
Chain of Fyn (P06241 whole entry, looked up): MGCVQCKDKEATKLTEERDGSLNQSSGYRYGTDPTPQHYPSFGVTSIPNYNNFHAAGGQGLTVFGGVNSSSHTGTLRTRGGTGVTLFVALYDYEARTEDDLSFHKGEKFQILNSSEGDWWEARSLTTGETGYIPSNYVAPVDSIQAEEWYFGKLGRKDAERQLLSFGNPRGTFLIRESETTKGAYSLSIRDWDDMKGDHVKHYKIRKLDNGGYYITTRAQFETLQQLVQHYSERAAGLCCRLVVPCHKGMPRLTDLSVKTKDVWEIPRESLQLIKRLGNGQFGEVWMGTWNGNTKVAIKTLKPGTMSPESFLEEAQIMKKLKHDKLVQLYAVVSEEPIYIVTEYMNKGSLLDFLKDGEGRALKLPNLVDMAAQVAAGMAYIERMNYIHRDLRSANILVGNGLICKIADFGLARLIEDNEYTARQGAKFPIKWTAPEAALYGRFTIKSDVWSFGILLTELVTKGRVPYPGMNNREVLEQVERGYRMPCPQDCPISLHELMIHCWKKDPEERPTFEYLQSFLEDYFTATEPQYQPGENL

[9] = biological target: Hck (UniProt P08631); assay: as above
Chain of Hck (P08631 whole entry, looked up): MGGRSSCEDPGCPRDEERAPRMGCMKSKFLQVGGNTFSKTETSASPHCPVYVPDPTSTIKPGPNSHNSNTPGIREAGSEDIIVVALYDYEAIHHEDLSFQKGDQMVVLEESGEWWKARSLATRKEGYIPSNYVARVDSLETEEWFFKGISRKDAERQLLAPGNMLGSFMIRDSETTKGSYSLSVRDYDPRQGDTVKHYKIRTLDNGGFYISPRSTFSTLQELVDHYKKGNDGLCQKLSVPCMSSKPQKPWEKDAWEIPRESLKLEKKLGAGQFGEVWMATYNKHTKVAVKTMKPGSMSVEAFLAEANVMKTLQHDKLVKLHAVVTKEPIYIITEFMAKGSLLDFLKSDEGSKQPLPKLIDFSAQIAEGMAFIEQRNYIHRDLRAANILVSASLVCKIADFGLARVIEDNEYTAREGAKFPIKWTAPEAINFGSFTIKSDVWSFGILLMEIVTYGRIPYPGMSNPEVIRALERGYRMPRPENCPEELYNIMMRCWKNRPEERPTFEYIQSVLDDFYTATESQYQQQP

[10] = biological target: Jak2 (UniProt O60674); assay: as above
[11] = biological target: MERTK (UniProt Q12866); assay: as above
Chain of MERTK (Q12866 whole entry, looked up): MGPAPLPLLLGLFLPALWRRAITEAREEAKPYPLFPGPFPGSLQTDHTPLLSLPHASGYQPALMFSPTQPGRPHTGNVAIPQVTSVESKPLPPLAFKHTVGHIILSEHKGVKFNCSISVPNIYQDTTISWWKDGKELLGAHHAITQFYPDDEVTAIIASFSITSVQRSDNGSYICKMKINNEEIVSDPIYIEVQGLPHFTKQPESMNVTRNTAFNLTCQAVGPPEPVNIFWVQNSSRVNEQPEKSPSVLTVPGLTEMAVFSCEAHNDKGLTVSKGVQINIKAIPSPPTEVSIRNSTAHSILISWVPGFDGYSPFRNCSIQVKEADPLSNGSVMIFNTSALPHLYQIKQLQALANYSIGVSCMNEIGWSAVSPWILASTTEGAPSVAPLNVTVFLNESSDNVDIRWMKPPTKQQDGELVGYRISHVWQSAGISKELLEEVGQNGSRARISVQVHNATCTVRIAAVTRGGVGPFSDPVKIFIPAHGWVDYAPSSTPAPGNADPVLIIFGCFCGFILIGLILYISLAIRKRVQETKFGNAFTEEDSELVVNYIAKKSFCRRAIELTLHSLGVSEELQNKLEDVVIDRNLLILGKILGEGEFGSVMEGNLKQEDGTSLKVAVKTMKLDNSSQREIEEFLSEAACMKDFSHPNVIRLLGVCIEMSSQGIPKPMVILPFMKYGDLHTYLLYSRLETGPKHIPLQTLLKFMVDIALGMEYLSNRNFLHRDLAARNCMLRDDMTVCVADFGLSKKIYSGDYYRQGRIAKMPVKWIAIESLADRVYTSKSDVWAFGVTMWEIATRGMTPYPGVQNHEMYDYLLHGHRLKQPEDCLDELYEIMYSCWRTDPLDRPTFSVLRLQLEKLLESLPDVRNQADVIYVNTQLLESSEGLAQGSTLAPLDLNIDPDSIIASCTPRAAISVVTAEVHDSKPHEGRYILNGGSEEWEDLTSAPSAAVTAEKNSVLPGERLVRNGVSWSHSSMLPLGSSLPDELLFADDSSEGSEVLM

[12] = system: c-Abl (mouse); assay: as above
[13] = system: c-Src; assay: as above
[14] = biological target: Grb2 SH2 (UniProt P62993); assay: SH2 binding enrichment of the phosphorylated peptide, bacterial display (enrichment ratio); higher = better substrate or ligand; peptides without Tyr show the background
[15] = biological target: SHP2-C SH2; assay: as above
[16] = biological target: c-Src SH2; assay: as above
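Wherever SH2 binding enrichment of the phosphorylated peptide, bacterial display is given: peptide library displayed on the E. coli surface as eCPX fusions, selected cells deep-sequenced, score is each peptide's frequency after selection divided by its frequency in the input.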
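Wherever phosphorylation enrichment, bacterial display is given: 11-residue human phosphosite peptides and single-mutation variants displayed on the E. coli surface, counted by deep sequencing, each peptide's frequency after selection divided by its frequency in the unselected input library; frequency after pTyr selection over input frequency; kinase dosed for 20-30% of maximal phosphorylation in three min.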

Chain of EPHB1 (P54762 whole entry, looked up): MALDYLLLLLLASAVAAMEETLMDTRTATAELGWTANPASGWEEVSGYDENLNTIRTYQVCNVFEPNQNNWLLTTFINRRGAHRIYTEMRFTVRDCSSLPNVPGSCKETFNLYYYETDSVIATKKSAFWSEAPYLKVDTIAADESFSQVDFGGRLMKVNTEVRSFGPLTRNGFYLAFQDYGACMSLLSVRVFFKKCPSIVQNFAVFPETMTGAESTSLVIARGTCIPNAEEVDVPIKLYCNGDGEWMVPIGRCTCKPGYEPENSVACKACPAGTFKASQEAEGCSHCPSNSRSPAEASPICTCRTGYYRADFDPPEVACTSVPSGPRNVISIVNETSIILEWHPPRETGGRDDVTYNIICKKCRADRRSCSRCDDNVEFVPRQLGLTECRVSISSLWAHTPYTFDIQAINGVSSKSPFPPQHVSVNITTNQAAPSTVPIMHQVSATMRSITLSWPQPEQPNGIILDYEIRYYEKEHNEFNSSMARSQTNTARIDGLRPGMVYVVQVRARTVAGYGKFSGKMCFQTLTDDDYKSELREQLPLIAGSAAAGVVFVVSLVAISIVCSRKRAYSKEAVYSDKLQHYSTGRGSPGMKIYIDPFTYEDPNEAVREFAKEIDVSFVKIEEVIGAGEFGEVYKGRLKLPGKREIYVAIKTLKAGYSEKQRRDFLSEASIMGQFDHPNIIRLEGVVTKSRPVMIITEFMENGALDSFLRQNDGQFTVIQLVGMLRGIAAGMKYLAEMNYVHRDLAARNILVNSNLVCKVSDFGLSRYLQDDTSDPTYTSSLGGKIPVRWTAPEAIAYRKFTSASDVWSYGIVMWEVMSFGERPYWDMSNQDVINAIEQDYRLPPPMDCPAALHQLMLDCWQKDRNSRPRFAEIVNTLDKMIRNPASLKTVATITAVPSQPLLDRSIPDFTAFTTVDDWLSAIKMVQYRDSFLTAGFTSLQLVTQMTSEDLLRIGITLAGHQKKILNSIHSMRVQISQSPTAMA

Row | Sequence | SH2 binding enrichment [14] | SH2 binding enrichment [15] | SH2 binding enrichment [16] | phosphorylation enrichment [1] | phosphorylation enrichment [2] | phosphorylation enrichment [3] | phosphorylation enrichment [4] | phosphorylation enrichment [5] | phosphorylation enrichment [6] | phosphorylation enrichment [7] | phosphorylation enrichment [8] | phosphorylation enrichment [9] | phosphorylation enrichment [10] | phosphorylation enrichment [11] | phosphorylation enrichment [12] | phosphorylation enrichment [13]
1 | VAMELYVFGGV [GAN_Y471] | 0.808 | 0.685 | 0.395 | 1.28 | 0.799 | 0.681 | 0.513 | 0.781 | 0.574 | 1.64 | 0.533 | 0.535 | 1.37 | 0.928 | 1.05 | 1.13
2 | VDTRAYFTSAT [MT-CO1_Y304] | 1.01 | 0.678 | 0.693 | 0.61 | 0.37 | 0.361 | 0.397 | 0.459 | 0.256 | 0.687 | 0.39 | 0.479 | 0.525 | 0.366 | 0.382 | 0.38
3 | VECHPYFTQPK [AKR1D1_Y199] | 0.765 | 0.637 | 0.444 | 0.938 | 0.525 | 0.517 | 0.591 | 0.709 | 0.421 | 1.01 | 0.559 | 0.515 | 0.819 | 0.371 | 0.617 | 0.779
4 | VEQIHYIGQNE [HMOX2_Y140_R137Q] | 0.834 | 0.582 | 0.465 | 0.665 | 0.445 | 0.396 | 0.483 | 0.612 | 0.424 | 0.663 | 0.462 | 0.461 | 0.547 | 0.408 | 0.423 | 0.452
5 | VERRVYAEDPY [PCCA_Y401_C398R] | 0.89 | 0.506 | 0.55 | 0.826 | 0.459 | 0.507 | 0.631 | 0.664 | 0.424 | 0.962 | 0.764 | 0.566 | 0.663 | 0.46 | 0.566 | 0.681
6 | VGIMLYGVDSR [PKD1_Y3143] | 0.888 | 0.63 | 0.489 | 1.12 | 0.575 | 0.626 | 0.592 | 0.792 | 0.634 | 1.19 | 0.572 | 0.61 | 1.05 | 0.383 | 0.77 | 0.435
7 | VHFARYLAMNK [HARS1_Y138_P134H] | 0.931 | 0.72 | 0.403 | 0.864 | 0.504 | 0.555 | 0.511 | 0.771 | 0.44 | 0.902 | 0.557 | 0.506 | 0.661 | 0.509 | 0.565 | 0.553
8 | VIKDKYPQARF [APTX_Y209_K211Q_YF] | 1.06 | 1.02 | 0.562 | 0.453 | 0.436 | 0.326 | 0.367 | 0.469 | 0.328 | 0.579 | 0.35 | 0.308 | 0.553 | 0.406 | 0.47 | 0.44

The next lines start with results.

Row | SH2 binding enrichment [14] | SH2 binding enrichment [15] | SH2 binding enrichment [16] | Sequence | phosphorylation enrichment [1] | phosphorylation enrichment [2] | phosphorylation enrichment [3] | phosphorylation enrichment [4] | phosphorylation enrichment [5] | phosphorylation enrichment [6] | phosphorylation enrichment [7] | phosphorylation enrichment [8] | phosphorylation enrichment [9] | phosphorylation enrichment [10] | phosphorylation enrichment [11] | phosphorylation enrichment [12] | phosphorylation enrichment [13]
9 | 0.94 | 0.945 | 0.632 | TYGNLYGSRKQ [YIPF7_Y59_A54T] | 0.655 | 0.434 | 0.74 | 0.486 | 0.467 | 1.38 | 0.6 | 6.14 | 13.2 | 0.73 | 0.89 | 0.864 | 7.59
10 | 1.11 | 0.835 | 0.483 | VEDPEYAVTQL [STOML2_Y124] | 1.24 | 0.466 | 0.531 | 0.477 | 0.516 | 0.709 | 0.997 | 0.398 | 0.463 | 0.893 | 0.409 | 0.597 | 0.549
11 | 0.908 | 0.852 | 1.06 | VFLGAYDRFLP [SLC22A5_Y486_YF] | 1.19 | 1.01 | 1.58 | 0.704 | 0.656 | 1.18 | 1.02 | 2.96 | 4 | 0.976 | 5.13 | 0.782 | 4.15
12 | 0.778 | 0.635 | 0.465 | VKPENYRRLDV [VHL_Y175_I180V] | 0.532 | 0.561 | 0.386 | 0.429 | 0.506 | 0.334 | 0.593 | 0.461 | 0.387 | 0.463 | 0.465 | 0.814 | 0.372
13 | 2.15 | 1.62 | 1.5 | VLALWYYYLTH [ZDHHC23_Y127] | 1.45 | 0.81 | 0.74 | 6.87 | 5.65 | 0.724 | 1.64 | 0.646 | 0.783 | 2.57 | 2.99 | 0.964 | 1.24
14 | 1.34 | 0.741 | 0.806 | VMIYAYLLHRG [PTEN_Y138_C136Y] | 0.821 | 0.479 | 0.455 | 0.351 | 0.703 | 0.371 | 0.856 | 0.443 | 0.697 | 0.733 | 0.591 | 0.748 | 0.46
